Laboratory results published in FireProtDB (doi:10.1093/protein/14.12.967).
Several values for one entry are separate records, joined by “and”; a condition that tells them apart may be missing. Equal values may be shown once.

B1: Lysozyme C, milk isozyme, P81708 (parent)
chain: KIFSKCELARKLKSMGMDGFHGYSLANWVCMAEYESNFNTQAFNGRNSNGSSDYGIFQLNSKWWCKSNSHSSANACNIMCSKFLDDNIDDDIACAKRVVKDPNGMSAWVAWVKHCKGKDLSKYLASCNL

Variants of: B1
Conditions: Canis lupus familiaris, pH 4.5, Thermal, DSC, sodium acetate 50 mM, reversible: yes, structure 1EL1, whole UniProt chain shown

Row | Variant | ddG of mutation (higher = less stable) (66.4 °C) | unfolding enthalpy (calorimetric) (66.4 °C) | unfolding free energy (66.4 °C) | change of melting temperature, mutant - wild type (higher = more stable) (transition: 3) | unfolding enthalpy (calorimetric) (transition: 3)
1 | KIFSKCELARKLKSMGMDGFHGYSLANWVCMAEYESNFNTQAFNGRNSNGSSDYGIFQLNSKWWCKSNSHSSANACNIMCSKFLDDNIDDDIACAKRVVKDPNGMSAWKAWVKHCKGKDLSKYLASCNL | 0.43 kcal/mol | 31.9 kcal/mol | 1.72 kcal/mol | -4.16 °C | 43.8 kcal/mol and 42.8 kcal/mol
2 | KIFSKCELARKLKSMGMDGFHGYSLANWVCMAEYESNFNTQAFNGRNSNGSSDYGLFQLNSKWWCKSNSHSSANACNIMCSKFLDDNIDDDIACAKRVVKDPNGMSAWVAWVKHCKGKDLSKYLASCNL | 0.24 kcal/mol | 31.8 kcal/mol | 1.91 kcal/mol | -2.44 °C | 23.8 kcal/mol and 43.8 kcal/mol
3 | KIFSKCELARKLKSMGMDGFGGYSLANWVCMAEYESNFNTQAFNGRNSNGSSDYGIFQLNSKWWCKSNSHSSANACNIMCSKFLDDNIDDDIACAKRVVKDPNGMSAWVAWVKHCKGKDLSKYLASCNL | 0.48 kcal/mol | 29.1 kcal/mol | 1.67 kcal/mol | -3.28 °C | 29.9 kcal/mol and 40.6 kcal/mol
4 | KIFSKCELARKLKSMGMDGFHGYSLANWVCMAEYESNFNTQAFNGRNSNGSSDYGIFQLNSKWWCKSNSHSSANACNIMCSKFLDDNIDDDISCAKRVVKDPNGMSAWVAWVKHCKGKDLSKYLASCNL | 0.26 kcal/mol | 32 kcal/mol | 1.89 kcal/mol | -2.59 °C | 39.6 kcal/mol and 43.8 kcal/mol
